Test: In vivo evaluation of HIP-PBCA nanoparticle delivery of dalargin to the brain, intravenous
Conditions: mouse, i.v., 20 minutes following injection, LC-MS-MS
Method: The ability of the HIP-PBCA nanoparticles to deliver their peptide load to the brain was determined in vivo in the mouse model. HIP-PBCA nanoparticles containing encapsulated dalargin using the HIP process were compared to HIP-PBCA nanoparticles that had had the peptide adsorbed onto the particle surface as reported by Kreuter et al. The nanoparticles were prepared for brain delivery via the intravenous route by coating their surface with polysorbate 80 surfactant. Briefly, the nanoparticles were incubated in PBS containing 1% w/v surfactant for 30 minutes prior to injection. The surfactant has been reported in the literature to indirectly target the nanoparticles to the brain by promoting adsorption of serum apolipoproteins onto the nanoparticle surface. This allows the particles to bind to the apolipoprotein receptor on the blood brain barrier and transcytose to reach the brain. The following formulations were compared: • 1. HIP-PBCA nanoparticles alone (5:1 HIP content) • 2. HIP-PBCA nanoparticles alone (10:1 HIP content) • 3. Dalargin in solution (2.0 mg/kg) • 4. HIP-PBCA nanoparticles with dalargin adsorbed onto the surface (2.0 mg/kg total dose used in formulation) • 5. […]
The mice were sacrificed at 20 minutes following injection, and the brains and blood samples collected and analysed for the presence of peptide by LC-MS-MS. […]

Substance: dalargin (YAGFLR; Humanised sequence of mus musculus and homo sapiens) [9: YAGFLR]
- Dalargin levels in the brain (detectability): detectable in the brain only when encapsulated within the particles using the HIP process

Reference: patent US20110059142A1, “ENCAPSULATION OF BIOLOGICALLY ACTIVE AGENTS” (priority 2008, published 2011)
